From patent publication US20200123227A1, “INTERFERON PRODRUG FOR THE TREATMENT OF CANCER” (The Board of Regents of the University of Texas System, published 2020) come the findings set out here.

For one test, the target named is human R2-SUB (human) (UniProt P01563).
In test [1] the target is cell surface IFNAR1/IFNAR2 heterodimer (RAW-Lucia ISG cells) (Mus musculus (Mouse)) (UniProt P33896).
In the next test the target is IFNa4-Fc (human). Nature of the test: cell-based or functional assay.

On to rmMMP-9 (from UniProt P41245) (enzyme), for which, in the test with human R2-SUB (human), the cleavage by rmMMP-9 at 37 C for 0, 0.5, 2 or 6 hours, digests separated on a stain-free gel is 100%.

Regarding “R1-IFNa4-Fc (from UniProt P07351) (Fc fusion)”, the IFN activity, luciferase reporter assay in RAW-Lucia ISG cells in test [1] is below 125 fold.

The molecule “R2-IFNa4-Fc (from UniProt P07351) (Fc fusion)” displayed an IFN activity, luciferase reporter assay in RAW-Lucia ISG cells in test [1] above 125 fold.

B1: Mouse IFNAR1-ECD (receptor)
chain: ENLKPPENIDVYIIDDNYTLKWSSHGESMGSVTFSAEYRTKDEAKWLKVPECQHTTTTKCEFSLLDTNVYIKTQFRVRAEEGNSTSSWNEVDPFIPFYTAHMSPPEVRLEAEDKAILVHISPPGQDGNMWALEKPSFSYTIRIWQKSSSDKKTINSTYYVEKIPELLPETTYCLEVKAIHPSLKKHSNYSTVQCISTTVANKMPVPGNLQVDAQGKSYVLKWDYIASADVLFRAQWLPGYSKSSSGSRSDKWKPIPTCANVQTTHCVFSQDTVYTGTFFLHVQASEGNHTSFWSEEKFIDSQKHILPPPPVITVTAMSDTLLVYVNCQDSTCDGLNYEIIFWENTSNTKISMEKDGPEFTLKNLQPLTVYCVQARVLFRALLNKTSNFSEKLCEKTRPGSFST
Turning to B1, the “IFN activity, luciferase reporter assay in RAW-Lucia ISG cells” value with IFNa4-Fc was at least 125 fold.

B2: Mouse IFNAR2-ECD (receptor)
chain: SLETITPSAFDGYPDEPCTINITIRNSRLILSWELENKSGPPANYTLWYTVMSKDENLTKVKNCSDTTKSSCDVTDKWLEGMESYVVAIVIVHRGDLTVCRCSDYIVPANAPLEPPEFEIVGFTDHINVTMEFPPVTSKIIQEKMKTTPFVIKEQIGDSVRKKHEPKVNNVTGNFTFVLRDLLPKTNYCVSLYFDDDPAIKSPLKCIVLQPGQESGLSESA
Turning to B2, the “IFN activity, luciferase reporter assay in RAW-Lucia ISG cells” value in the test with IFNa4-Fc is at least 125 fold.
